Sequences and labels used below:
B7: recombinant human IL-23 (hrIL-23), produced at Centocor (ligand)
chain 1: RAVPGGSSPAWTQCQQLSQKLCTLAWSAHPLVGHMDLREEGDEETTNDVPHIQCGDGCDPQGLRDNSQFCLQRIHQGLIFYEKLLGSDIFTGEPSLLPDSPVAQLHASLLGLSQLLQPEGHHWETQQIPSLSPSQPWQRLLLRFKILRSLQAFVAVAARVFAHGAATLSP
chain 2: IWELKKDVYVVELDWYPDAPGEMVVLTCDTPEEDGITWTLDQSSEVLGSGKTLTIQVKEFGDAGQYTCHKGGEVLSHSLLLLHKKEDGIWSTDILKDQKEPKNKTFLRCEAKNYSGRFTCWWLTTISTDLTFSVKSSRGSSDPQGVTCGAATLSAERVRGDNKEYEYSVECQEDSACPAAEESLPIEVMVDAVHKLKYENYTSSFFIRDIIKPDPPKNLQLKPLKNSRQVEVSWEYPDTWSTPHSYFSLTFCVQVQGKSKREKKDRVFTDKTSATVICRKNASISVRAQDRYYSSSWSEWASVPCS
notes: p19-p40 heterodimer; also called rhIL-23; huIL-23

Experiment [1] concerns the target T1, recombinant human IL-12 (hrIL-12), produced at Centocor (human, UniProt P29459 23-219; P29460 23-328).
T1 construct: also called IL-12 CNTO
T1 sequence (looked up) 1: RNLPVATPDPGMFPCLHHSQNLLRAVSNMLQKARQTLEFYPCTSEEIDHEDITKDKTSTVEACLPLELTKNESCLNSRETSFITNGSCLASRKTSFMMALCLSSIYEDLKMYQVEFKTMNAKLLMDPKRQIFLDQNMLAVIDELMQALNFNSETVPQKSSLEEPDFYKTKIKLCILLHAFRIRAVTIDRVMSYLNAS
T1 sequence (looked up) 2: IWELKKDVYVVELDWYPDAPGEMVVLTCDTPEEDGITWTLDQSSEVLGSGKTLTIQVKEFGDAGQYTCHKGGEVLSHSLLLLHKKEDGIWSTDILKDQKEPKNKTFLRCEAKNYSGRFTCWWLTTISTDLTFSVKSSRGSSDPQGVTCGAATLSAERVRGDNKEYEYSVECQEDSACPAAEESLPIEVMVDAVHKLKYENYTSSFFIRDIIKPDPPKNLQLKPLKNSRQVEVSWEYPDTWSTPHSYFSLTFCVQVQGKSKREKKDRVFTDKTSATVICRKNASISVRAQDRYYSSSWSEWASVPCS
Description: not told.

Experiment [2] concerns the target B7. The experiment in a line: SET.
Experiment [3] deals with B7. The experiment in a line: IL-23/IL-23R competition assay.
The target in experiment [4] is B7. Description: cell-based or functional assay.
The target in experiment [5] is B7. Description: blocking ELISA: 20 ng/ml IL-23-bt. with titrated mAb, binding to plate-immobilized IL-23R-Fc is blocked. For orientation: ELISA stands for enzyme-linked immunosorbent assay.
Experiment [6] concerns the target T2, p40 subunit of hrIL-12 (hrp40 monomer) (human, UniProt P29460 23-328).
T2 construct: also called p40 R&D
T2 sequence (looked up): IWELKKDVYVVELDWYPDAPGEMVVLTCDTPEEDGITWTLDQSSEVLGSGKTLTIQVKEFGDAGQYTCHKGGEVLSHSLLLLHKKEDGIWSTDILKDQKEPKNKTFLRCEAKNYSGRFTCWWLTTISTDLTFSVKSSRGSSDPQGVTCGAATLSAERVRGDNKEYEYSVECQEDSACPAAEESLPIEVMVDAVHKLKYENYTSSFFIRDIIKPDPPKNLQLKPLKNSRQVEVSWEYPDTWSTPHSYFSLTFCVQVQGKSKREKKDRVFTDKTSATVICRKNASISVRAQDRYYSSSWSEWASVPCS
The experiment in a line: cytokine capture ELISA: mAbs coated onto plates, cytokines at 100 ng/ml, binding detected with mAb12B-biotin. How it is done: (§1) Purified mouse anti-hIL-23 mAbs were evaluated in cytokine capture ELISA to determine their antigen subunit specificity. Briefly, IL-23 mAbs were coated onto plates and incubated with 100 ng/ml) hrIL-23, hrIL-12, and hrp40, respectively. Following incubation with biotinylated anti-p40 mAb, the binding was detected using HRP—conjugated streptavidin. An anti-p40 mAb and an anti-IL-12 mAb (20C2, Catalog No. 555065, BD Pharmingen, San Diego, Calif.) with known specificity were used as controls.

The target in experiment [7] is T1, recombinant human IL-12 (hrIL-12), …. The experiment is described as above. How it is done:
as §1

Experiment [8] has as its target B7. Description: biotinylated hrIL-23 on immobilized IL-23R-Fc. How it is done:
In this experiment, a human IL-23R-Fc fusion protein was immobilized on a plate. This fusion protein consists of the extracellular domain of human IL-23 receptor fused to a human Fc segment. Biotinylated hrIL-23 was added to the plate either alone or after preincubation with individual IL-23p19 mAbs. Soluble IL-23R (IL-23R-Fc) was used as a positive control. IL-23 binding was detected with HRP-conjugated streptavidin. […] There was no inhibition by B21M, a mAb with unrelated specificity. […] IL-23 binding was inhibited by the p40 neutralizing mAb CNTO 1275 (same as mAb 12A), as expected. […] CNTO 1275 again served as a positive control.

The target in the next experiment is T3, mIL-12 (Disulfide-linked, glycosylated heterodimer; the letters do not carry this.).
T3 construct: also called murine IL-12; copies: 1 + 1
T3 alpha: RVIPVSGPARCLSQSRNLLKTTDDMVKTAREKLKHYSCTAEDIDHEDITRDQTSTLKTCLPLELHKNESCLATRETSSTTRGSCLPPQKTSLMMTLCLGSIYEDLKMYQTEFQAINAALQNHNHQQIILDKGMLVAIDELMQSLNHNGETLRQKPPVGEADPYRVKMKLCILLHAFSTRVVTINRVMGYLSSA
T3 beta: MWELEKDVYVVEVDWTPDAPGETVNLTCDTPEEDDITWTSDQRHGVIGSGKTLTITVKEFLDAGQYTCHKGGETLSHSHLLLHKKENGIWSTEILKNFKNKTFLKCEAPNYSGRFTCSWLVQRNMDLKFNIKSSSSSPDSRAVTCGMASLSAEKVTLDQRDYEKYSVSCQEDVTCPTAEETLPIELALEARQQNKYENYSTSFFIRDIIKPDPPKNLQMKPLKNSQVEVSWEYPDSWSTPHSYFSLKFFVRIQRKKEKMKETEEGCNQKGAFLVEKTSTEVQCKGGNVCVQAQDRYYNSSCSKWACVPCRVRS
Description: cytokine capture ELISA: mAbs coated onto plates, cytokines at 100 ng/ml; murine p40 containing cytokine detected with C17.8-biotin.

Another experiment deals with T4, murine IL-23 (murine, UniProt Q9EQ14 22-196; P43432 23-335).
T4 sequence (looked up) 1: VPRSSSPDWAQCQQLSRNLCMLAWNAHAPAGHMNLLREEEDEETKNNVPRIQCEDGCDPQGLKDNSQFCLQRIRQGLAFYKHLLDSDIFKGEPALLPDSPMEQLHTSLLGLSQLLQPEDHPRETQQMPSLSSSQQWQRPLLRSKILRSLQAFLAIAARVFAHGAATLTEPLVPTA
T4 sequence (looked up) 2: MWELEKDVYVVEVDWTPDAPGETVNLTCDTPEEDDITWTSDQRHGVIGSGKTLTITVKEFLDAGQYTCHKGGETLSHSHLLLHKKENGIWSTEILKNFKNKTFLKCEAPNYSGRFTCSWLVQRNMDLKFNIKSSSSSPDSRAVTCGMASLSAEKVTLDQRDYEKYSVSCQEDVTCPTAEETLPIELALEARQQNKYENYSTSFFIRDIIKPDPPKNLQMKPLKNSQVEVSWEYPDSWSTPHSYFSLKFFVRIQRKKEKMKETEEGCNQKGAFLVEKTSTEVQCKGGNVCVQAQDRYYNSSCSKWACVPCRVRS
The description is as above.

The next experiment addresses T5, murine p40 (murine, UniProt P43432 23-335).
T5 sequence (looked up): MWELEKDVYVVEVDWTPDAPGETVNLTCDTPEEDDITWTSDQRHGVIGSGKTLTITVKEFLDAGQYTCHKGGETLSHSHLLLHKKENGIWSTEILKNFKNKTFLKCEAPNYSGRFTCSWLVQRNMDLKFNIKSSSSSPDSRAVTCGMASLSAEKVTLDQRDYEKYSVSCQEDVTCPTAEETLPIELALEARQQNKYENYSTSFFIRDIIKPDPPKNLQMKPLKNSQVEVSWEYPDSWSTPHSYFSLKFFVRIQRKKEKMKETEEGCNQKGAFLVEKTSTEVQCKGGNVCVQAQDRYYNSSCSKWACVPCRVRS
The experiment in a line: cytokine capture ELISA: mAbs coated onto plates, cytokines at 100 ng/ml; murine p40 containing cytokine detected with C17.8-biotin; target printed as m(p40)2.

Experiment [9] addresses B7. Description: IL-23/IL-23R competition assay. This is another data set of the same source.
Experiment [10] deals with B7. Description: SET. The source holds these as a separate data set.
In experiment [11] the target is T6, IL-23R and IL-12Rβ1 naturally expressed on TALL-104 cells (human, UniProt Q5VWK5 24-629; P42701 24-662).
T6 construct: whole, on cells
The experiment in a line: flow cytometry on TALL-104 cells. (In general: A flow cytometer gives signals particle by particle.)

What is called Kd is the free concentration of one partner at which half of the binding sites on the other are occupied at equilibrium, for simple one-to-one binding. The term IC50 denotes the concentration at which inhibition is half-maximal.

Like-named read-outs stand apart in the source and are kept apart here.

B1: MOR05049 Fab (Fab, V domains shown)
VH: QVQLVESGGGLVQPGGSLRLSCAASGFTFSSFGMSWVRQAPGKGLEWVSGIEHKYLSYTTHYAASVKGRFTISRDNSKNTLYLQMNSLRAEDTAVYYCARYWGTPYLMQFDNWGQGTLVTVSS
VL: DIALTQPASVSGSPGQSITISCTGTSSDVGGYNSVSWYQQHPGKAPKLMIYSVSSRPSGVSNRFSGSKSGNTASLTISGLQAEDEADYYCSSYDTNKPLVVFGGGTKLTVL
notes: Fab
Turning to B1, in [1], the binding result is recorded as “no binding”. The dissociation constant Kd in experiment [2] is 7 pM. Also, in experiment [3], the IC50 was 0.39 nM.

B2: MOR05049 mAb (antibody, human IgG1, V domains shown)
VH: QVELVESGGGLVQPGGSLRLSCAASGFTFSSFGMSWVRQAPGKGLEWVSGIEHKYLSYTTHYAASVKGRFTISRDNSKNTLYLQMNSLRAEDTAVYYCARYWGTPYLMQFDNWGQGTLVTVSS
VL: DIALTQPASVSGSPGQSITISCTGTSSDVGGYNSVSWYQQHPGKAPKLMIYSVSSRPSGVSNRFSGSKSGNTASLTISGLQAEDEADYYCSSYDTNKPLVVFGGGTKLTVL
notes: human IgG1/lambda
In the case of B2, the “IC50, inhibition of IL-17 production” value in [4] was 0.0162 µg/mL. Besides, the “IC50 (read off the curve)” value in experiment [5] is about 0.1 µg/mL.

B3: MOR04190 mAb (antibody, human IgG1, V domains shown)
VH: QVELVQSGAEVKKPGSSVKVSCKASGGTFSSNYISWVRQAPGQGLEWMGGIIPIFGHANYAQKFQGRVTITADESTSTAYMELSSLRSEDTAVYYCARSKKGMYGGWTYPLMMFDLWGQGTLVTVSS
VL: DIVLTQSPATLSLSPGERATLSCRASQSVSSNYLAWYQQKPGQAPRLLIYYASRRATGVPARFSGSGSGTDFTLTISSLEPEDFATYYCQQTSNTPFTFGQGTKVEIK
notes: human IgG1/kappa; also called 4190 (κ); MOR0190
B3: the “IC50, inhibition of IL-17 production” value in experiment [4] came out at 0.218 µg/mL. Moreover, the binding result (in experiment [6]; in experiment [7]; with mIL-12; in the experiment with murine IL-23; with murine p40) was “no binding (tested: 100 ng/ml)” throughout. For the same molecule, the “fold weaker potency than soluble IL-23R-Fc” value in [8] was about 3 fold.

B4: MOR05038 Fab (Fab, V domains shown)
VH: QVQLVQSGAEVKKPGSSVKVSCKASGGTFSSNYISWVRQAPGQGLEWMGINAHLGGTWYAQKFQGRVTITADESTSTAYMELSSLRSEDTAVYYCARSKKGMYGGWTYPLMMFDLWGQGTLVTVSS
VL: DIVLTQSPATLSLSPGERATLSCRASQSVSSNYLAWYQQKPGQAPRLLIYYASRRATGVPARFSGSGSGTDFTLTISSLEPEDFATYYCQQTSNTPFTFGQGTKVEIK
notes: Fab
For the molecule B4, the IC50 in experiment [9] was 0.17 nM. The binding result in [1] is given as “no binding”. Further, in experiment [10], the Kd was found to be 0.038 nM.

B5: MOR04083 mAb (antibody, human IgG1, V domains shown)
VH: QVELVQSGAEVKKPGSSVKVSCKASGGTFSNYAISWVRQAPGQGLEWMGGIIPMFGYANYAQKFQGRVTITADESTSTAYMELSSLRSEDTAVYYCARDIYAGMDVWGQGTLVTVSS
VL: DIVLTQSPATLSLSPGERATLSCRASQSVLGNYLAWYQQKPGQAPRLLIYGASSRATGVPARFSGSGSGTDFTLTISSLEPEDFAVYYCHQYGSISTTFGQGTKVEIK
notes: human IgG1/kappa; also called 4083 (κ)
Turning to B5, in experiment [4], the “IC50, inhibition of IL-17 production” value was determined as 1.4 µg/mL. The binding result (in experiment [6]; in experiment [7]; with mIL-12; with murine IL-23; in the experiment with murine p40) was “no binding (tested: 100 ng/ml)” each time. In addition, in [8], the “fold weaker potency than soluble IL-23R-Fc” value is about 3 fold.

B6: MOR05028 Fab (Fab, V domains shown)
VH: QVQLVQSGAEVKKPGSSVKVSCKASGGTFSNYAISWVRQAPGQGLEWMGGIIPVFGFTHYAQKFQGRVTITADESTSTAYMELSSLRSEDTAVYYCARDIYAGMDVWGQGTLVTVSS
VL: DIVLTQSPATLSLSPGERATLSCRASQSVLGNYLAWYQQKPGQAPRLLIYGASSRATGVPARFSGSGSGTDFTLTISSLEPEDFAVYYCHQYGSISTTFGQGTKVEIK
notes: Fab
As for B6, the IC50 in experiment [9] turned out to be 0.43 nM. Further, the binding result in experiment [1] is “no binding”. The Kd in experiment [10] was determined as 0.133 nM.

With B7, in experiment [11], the binding result is reported as “binds”.

Values taken from patent US20180291096A1 (Janssen / Centocor, published 2018).
